Measurements from patent US20240043507A1.

How the values were obtained:
[1] = target: SARS-CoV-2 receptor binding domain with N501Y (SARS-CoV-2) (UniProt P0DTC2); experiment: BLI, RBD immobilised on AR2G biosensor, 1:1 fit
[2] = target: spike protein of SARS-CoV-2 strain B.1.351 (SARS-CoV-2) (UniProt P0DTC2); experiment: cell-based or functional assay
[3] = target: SARS-CoV-2 spike protein on authentic virus, strain B.1.1.7 (SARS-CoV-2) (UniProt P0DTC2); experiment: cell-based or functional assay
[4] = target: SARS-CoV-2 spike protein on authentic virus, strain SARS-CoV-2/human/AUS/VIC01/2020 (Victoria) (SARS-CoV-2) (UniProt P0DTC2); experiment: cell-based or functional assay
[5] = target: SARS-CoV-2 spike receptor binding domain K417T (SARS-CoV-2) (UniProt P0DTC2); experiment: BLI, RBD on AR2G biosensor, mAb as analyte

Substance “REGN10987 as tested by BLI (Fab by the footnote of Table 12)” has a Kd [1] of 3.09 nM.
Work on AZD8895 (antibody) yielded an IC50 (FRNT, live virus neutralisation) [2] of 0.046 µg/mL.
In the case of REGN10933 (antibody), the IC50 (FRNT, live virus neutralisation) [2] is reported as 3.28 µg/mL.
With “AZD7442 (a combination of AZD1061 and AZD8895)” the B.1.1.7/Victoria Ratio of IC50 [3] was 0.77, the IC50 (ug/ml), FRNT [3] was 0.007 µg/mL and the IC50 (ug/ml), FRNT [4] was 0.009 µg/mL.
Work on REGN10987 (antibody) yielded an IC50 (FRNT, live virus neutralisation) [2] of 0.007 µg/mL.
AZD1061 (antibody) showed an IC50 (FRNT, live virus neutralisation) [2] of 0.014 µg/mL and a Kd [5] of 8 nM.
For “AZD8895 as tested by BLI (Fab by the footnote of Table 12)”, the Kd [1] was 2.44 nM.
Work on “REGN10933 as tested by BLI (Fab by the footnote of Table 12)” yielded a Kd [1] of 2.75 nM.
With “AZD1061 as tested by BLI (Fab by the footnote of Table 12)” the Kd [1] was 1.41 nM.
